The results in this text go back to IntAct's records for PubMed 18063693.

To fix the notation:
B1: Steroid hormone receptor ERR1 (Homo sapiens), P11474 (parent)
chain: MSSQVVGIEPLYIKAEPASPDSPKGSSETETEPPVALAPGPAPTRCLPGHKEEEDGEGAGPGEQGGGKLVLSSLPKRLCLVCGDVASGYHYGVASCEACKAFFKRTIQGSIEYSCPASNECEITKRRRKACQACRFTKCLRVGMLKEGVRLDRVRGGRQKYKRRPEVDPLPFPGPFPAGPLAVAGGPRKTAAPVNALVSHLLVVEPEKLYAMPDPAGPDGHLPAVATLCDLFDREIVVTISWAKSIPGFSSLSLSDQMSVLQSVWMEVLVLGVAQRSLPLQDELAFAEDLVLDEEGARAAGLGELGAALLQLVRRLQALRLEREEYVLLKALALANSDSVHIEDAEAVEQLREALHEALLEYEAGRAGPGGGAERRRAGRLLLTLPLLRQTAGKVLAHFYGVKLEGKVPMHKLFLEMLEAMMD
partner: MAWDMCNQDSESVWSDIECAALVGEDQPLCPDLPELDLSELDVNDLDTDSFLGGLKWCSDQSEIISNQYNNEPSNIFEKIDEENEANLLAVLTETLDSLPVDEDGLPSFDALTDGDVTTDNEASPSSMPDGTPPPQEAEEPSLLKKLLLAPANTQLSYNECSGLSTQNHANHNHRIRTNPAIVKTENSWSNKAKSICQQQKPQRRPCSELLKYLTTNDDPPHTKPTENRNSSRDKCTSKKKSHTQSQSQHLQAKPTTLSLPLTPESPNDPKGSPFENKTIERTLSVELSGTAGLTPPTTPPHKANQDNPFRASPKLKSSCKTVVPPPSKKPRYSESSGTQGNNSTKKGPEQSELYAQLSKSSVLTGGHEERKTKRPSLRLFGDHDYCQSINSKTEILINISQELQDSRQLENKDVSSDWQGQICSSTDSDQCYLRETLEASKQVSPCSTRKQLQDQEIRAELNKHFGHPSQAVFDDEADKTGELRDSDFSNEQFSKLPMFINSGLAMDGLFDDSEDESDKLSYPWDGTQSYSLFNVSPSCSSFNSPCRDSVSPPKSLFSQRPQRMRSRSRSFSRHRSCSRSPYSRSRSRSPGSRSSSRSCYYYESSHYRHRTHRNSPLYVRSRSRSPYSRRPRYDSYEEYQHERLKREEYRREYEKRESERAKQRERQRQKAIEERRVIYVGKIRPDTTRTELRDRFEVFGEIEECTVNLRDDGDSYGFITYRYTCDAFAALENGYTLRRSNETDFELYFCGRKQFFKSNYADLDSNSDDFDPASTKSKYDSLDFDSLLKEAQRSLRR
B2: Steroid hormone receptor ERR1 (Homo sapiens), P11474 (parent)
chain: B1 chain
B3: Estrogen-related receptor gamma (Homo sapiens), P62508 (parent)
chain: MDSVELCLPESFSLHYEEELLCRMSNKDRHIDSSCSSFIKTEPSSPASLTDSVNHHSPGGSSDASGSYSSTMNGHQNGLDSPPLYPSAPILGGSGPVRKLYDDCSSTIVEDPQTKCEYMLNSMPKRLCLVCGDIASGYHYGVASCEACKAFFKRTIQGNIEYSCPATNECEITKRRRKSCQACRFMKCLKVGMLKEGVRLDRVRGGRQKYKRRIDAENSPYLNPQLVQPAKKPYNKIVSHLLVAEPEKIYAMPDPTVPDSDIKALTTLCDLADRELVVIIGWAKHIPGFSTLSLADQMSLLQSAWMEILILGVVYRSLSFEDELVYADDYIMDEDQSKLAGLLDLNNAILQLVKKYKSMKLEKEEFVTLKAIALANSDSMHIEDVEAVQKLQDVLHEALQDYEAGQHMEDPRRAGKMLMTLPLLRQTSTKAVQHFYNIKLEGKVPMHKLFLEMLEAKV
partner: B1 partner

Variants of B1 are the subject of one assay. The conditions noted are these: with prgc1_human PPARGC1A.
Consider MSSQVVGIEPLYIRAEPASPDSPKGSSETETEPPVALAPGPAPTRCLPGHKEEEDGEGAGPGEQGGGKLVLSSLPKRLCLVCGDVASGYHYGVASCEACKAFFKRTIQGSIEYSCPASNECEITKRRRKACQACRFTKCLRVGMLKEGVRLDRVRGGRQKYKRRPEVDPLPFPGPFPAGPLAVAGGPRKTAAPVNALVSHLLVVEPEKLYAMPDPAGPDGHLPAVATLCDLFDREIVVTISWAKSIPGFSSLSLSDQMSVLQSVWMEVLVLGVAQRSLPLQDELAFAEDLVLDEEGARAAGLGELGAALLQLVRRLQALRLEREEYVLLKALALANSDSVHIEDAEAVEQLREALHEALLEYEAGRAGPGGGAERRRAGRLLLTLPLLRQTAGKVLAHFYGVKLEGKVPMHKLFLEMLEAMMD [K14R], for which the “effect of a mutation on the interaction” value is given as “with no effect”.

A further assay covers variants of B2. To be noted: with sumo3_human SUMO3, P55854.
Chain of sumo3_human SUMO3, P55854 (P55854 whole entry): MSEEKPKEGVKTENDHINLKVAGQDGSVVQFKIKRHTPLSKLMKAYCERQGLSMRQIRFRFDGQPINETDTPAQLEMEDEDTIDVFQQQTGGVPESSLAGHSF
As for MSSQVVGIEPLYIRAEPASPDSPKGSSETETEPPVALAPGPAPTRCLPGHKEEEDGEGAGPGEQGGGKLVLSSLPKRLCLVCGDVASGYHYGVASCEACKAFFKRTIQGSIEYSCPASNECEITKRRRKACQACRFTKCLRVGMLKEGVRLDRVRGGRQKYKRRPEVDPLPFPGPFPAGPLAVAGGPRKTAAPVNALVSHLLVVEPEKLYAMPDPAGPDGHLPAVATLCDLFDREIVVTISWAKSIPGFSSLSLSDQMSVLQSVWMEVLVLGVAQRSLPLQDELAFAEDLVLDEEGARAAGLGELGAALLQLVRRLQALRLEREEYVLLKALALANSDSVHIEDAEAVEQLREALHEALLEYEAGRAGPGGGAERRRAGRLLLTLPLLRQTAGKVLAHFYGVKLEGKVPMHKLFLEMLEAMMD [K14R], the “effect of a mutation on the interaction” value is recorded as “with no effect”.

In another assay the parent is B3. To be noted: with prgc1_human PPARGC1A.
As for MDSVELCLPESFSLHYEEELLCRMSNKDRHIDSSCSSFIRTEPSSPASLTDSVNHHSPGGSSDASGSYSSTMNGHQNGLDSPPLYPSAPILGGSGPVRKLYDDCSSTIVEDPQTKCEYMLNSMPKRLCLVCGDIASGYHYGVASCEACKAFFKRTIQGNIEYSCPATNECEITKRRRKSCQACRFMKCLKVGMLKEGVRLDRVRGGRQKYKRRIDAENSPYLNPQLVQPAKKPYNKIVSHLLVAEPEKIYAMPDPTVPDSDIKALTTLCDLADRELVVIIGWAKHIPGFSTLSLADQMSLLQSAWMEILILGVVYRSLSFEDELVYADDYIMDEDQSKLAGLLDLNNAILQLVKKYKSMKLEKEEFVTLKAIALANSDSMHIEDVEAVQKLQDVLHEALQDYEAGQHMEDPRRAGKMLMTLPLLRQTSTKAVQHFYNIKLEGKVPMHKLFLEMLEAKV [K40R], the “effect of a mutation on the interaction” value is “with no effect”.
